For this data set, the target named is Flag-RBPJ (mouse, UniProt P31266-2 1-487). The data set can be described thus: EMSA; 1 nM DNA; 12 mM Hepes pH 7.9, 10 mM Tris-HCl pH 7.5, 60 mM KCl, 8% glycerol, 4 mM MgCl2, 0.02% NP40, 30 C; 5% PAGE 0.5x TBE. The following applies: protein: recombinant; tags: Flag; label: 32P (T4 PNK); blunt. On the technique in general: A gel shift assay detects complexes by their altered migration in electrophoresis.
Flag-RBPJ, sequence (P31266 other isoform, or with tags, fused parts or gaps): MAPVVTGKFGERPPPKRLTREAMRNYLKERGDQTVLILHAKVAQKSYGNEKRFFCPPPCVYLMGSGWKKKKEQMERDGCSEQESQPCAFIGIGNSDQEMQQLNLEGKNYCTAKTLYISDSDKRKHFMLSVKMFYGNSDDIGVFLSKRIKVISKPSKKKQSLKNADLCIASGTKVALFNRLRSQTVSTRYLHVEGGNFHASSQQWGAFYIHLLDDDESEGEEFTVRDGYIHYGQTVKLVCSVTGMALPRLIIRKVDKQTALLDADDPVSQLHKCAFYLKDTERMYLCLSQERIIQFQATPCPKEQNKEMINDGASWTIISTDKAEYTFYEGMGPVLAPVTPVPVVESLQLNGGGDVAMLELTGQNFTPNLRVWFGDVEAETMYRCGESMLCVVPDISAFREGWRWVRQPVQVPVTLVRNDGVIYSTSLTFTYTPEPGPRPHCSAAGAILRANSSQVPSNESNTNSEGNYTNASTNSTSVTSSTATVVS

B1: 16 bp RBPJ motif DNA (dsDNA)
DNA 1: CACTGGGAACCTACCC
DNA 2: GGGTAGGTTCCCAGTG
Regarding B1, the binding result is “binds”.

(Values after publication PMC3945225, “RBPJ, the Major Transcriptional Effector of Notch Signaling, Remains Associated with Chromatin throughout Mitosis, Suggesting a Role in Mitotic Bookmarking”.)
